# T1: endogenous TL1A induced in PBMC by immune complexes (UniProt O95150 72-251, limits assumed)
# T1 sequence (looked up): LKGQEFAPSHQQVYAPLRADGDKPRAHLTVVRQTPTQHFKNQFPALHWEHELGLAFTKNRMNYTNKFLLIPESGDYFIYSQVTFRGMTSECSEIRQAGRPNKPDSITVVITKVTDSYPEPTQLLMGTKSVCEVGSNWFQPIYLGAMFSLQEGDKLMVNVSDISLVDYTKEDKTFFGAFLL
# B1: M701-4007 (antibody, human IgG1, kappa, L234A L235A, V domains shown)
# VH: ELQLQESGPGLVKPSETLSLTCAVSGVSFSDYHWAWIRQPPGKGLEWIGDINHRGHTNYNPSLKSRVTVSIDTSKNQFSLKLSSVTAADTAVYFCARDFPNFIFDFWGQGTLVTVSS
# VL: DIQLTQSPGTLSLSPGERATLSCRASQSVSTYLAWYQQKPGQAPRLLIYGASKRATGIPDRFSGSGSGTDFTLTISRLEPEDFAVYYCQQYGDSPLTFGQGTKVEIKR
# notes: Fc-engineered IgG1
# Molecular target: T1, endogenous TL1A induced in PBMC by …
# Assay: cell-based or functional assay
binder,measurement,value
B1,"IC50 (read off the curve); IFN-γ of PBMC stimulated with immune complex, IL-12 and IL-18",~500 pM
